Reference: patent US20090074793A1 (published 2009)

What was measured:
[1] = target: T1, mfIL-4R of the cellular bioassay (monkey (Macaca fascicularis), UniProt P24394 26-231 (human entry)); test: cell-based or functional assay
T1 chain: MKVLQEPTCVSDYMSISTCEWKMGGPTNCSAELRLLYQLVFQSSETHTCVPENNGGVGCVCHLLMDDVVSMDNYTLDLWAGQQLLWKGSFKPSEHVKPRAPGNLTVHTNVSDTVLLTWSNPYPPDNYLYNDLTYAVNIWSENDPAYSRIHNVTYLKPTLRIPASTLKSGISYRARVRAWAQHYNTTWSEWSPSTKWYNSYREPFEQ

[2] = target: T2, hIL-4R on engineered HK293 cells (human STAT6 and STAT6 luciferase reporter) (human, UniProt P24394 26-232); test: cell-based or functional assay
T2 sequence: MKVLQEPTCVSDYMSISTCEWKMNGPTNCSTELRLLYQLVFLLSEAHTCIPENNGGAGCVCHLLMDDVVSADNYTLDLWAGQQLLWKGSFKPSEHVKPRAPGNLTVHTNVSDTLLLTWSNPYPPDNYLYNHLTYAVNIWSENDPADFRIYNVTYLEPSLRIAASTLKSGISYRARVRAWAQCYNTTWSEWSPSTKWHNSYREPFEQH

[3] = target: T3, monomeric hIL-4R (R&D Systems) (human, UniProt P24394 26-232, limits assumed); test: SPR (BIACORE 2000), antibody captured on anti-hFc, monomeric hIL-4R, 25° C.
T3 construct: Bought protein (R&D Systems); also called human IL-4 receptor alpha
T3 sequence: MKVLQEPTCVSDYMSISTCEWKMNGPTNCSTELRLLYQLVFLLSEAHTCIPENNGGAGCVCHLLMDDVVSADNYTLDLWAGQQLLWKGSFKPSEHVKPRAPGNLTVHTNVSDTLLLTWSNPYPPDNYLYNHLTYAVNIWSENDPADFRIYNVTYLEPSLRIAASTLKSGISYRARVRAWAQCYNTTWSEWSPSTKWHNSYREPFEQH
Procedure: (§1) Briefly, antibody was captured on a goat anti-hFc polyclonal antibody surface created through direct coupling to a BIACORE™ chip to form a captured antibody surface. Various concentrations (ranging from 50 nM to 12.5 nM) of monomeric hIL-4R (R&D Systems) or dimeric hIL-4R-mFc were injected over the captured antibody surface at 10 μl/min for 2.5 min at either 25° C. or 37° C. Binding of antigen to antibody and dissociation of the bound complex, were monitored in real time. Equilibrium dissociation constants (KD) and dissociation rate constants were ascertained by performing kinetic analysis using BIA evaluation software. BIA evaluation software was also used to calculate the half-life of antigen/antibody complex dissociation (T_{1/2}). […] Control: a fully human anti-IL-4R antibody (U.S. Pat. No. 7,186, 809; SEQ ID NOs:10 and 12).

[4] = target: T3, monomeric hIL-4R (R&D Systems); test: SPR (BIACORE 2000), antibody captured on anti-hFc, monomeric hIL-4R, 37° C.
Procedure: as §1

[5] = target: T4, dimeric hIL-4R-mFc (human, UniProt P24394 26-232); test: SPR (BIACORE 2000), antibody captured on anti-hFc, dimeric hIL-4R-mFc, 25° C.
T4 construct: not shown: mFc (mouse Fc)
T4 sequence: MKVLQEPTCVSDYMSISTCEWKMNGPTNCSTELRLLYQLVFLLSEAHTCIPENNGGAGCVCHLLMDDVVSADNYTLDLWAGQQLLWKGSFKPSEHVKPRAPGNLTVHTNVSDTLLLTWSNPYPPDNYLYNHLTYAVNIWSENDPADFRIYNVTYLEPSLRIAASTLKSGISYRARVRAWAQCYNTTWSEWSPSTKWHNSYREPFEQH
Procedure: as §1

[6] = target: T4, dimeric hIL-4R-mFc; test: SPR (BIACORE 2000), antibody captured on anti-hFc, dimeric hIL-4R-mFc, 37° C.
Procedure: as §1

[7] = target: T4, dimeric hIL-4R-mFc; test: ELISA-based solution competition, 25 pM hIL-4R-mFc, free receptor on biotin-hIL4 plate
Procedure: (§2) Antibody-antigen binding affinity was also assessed using an ELISA-based solution competition assay. Briefly, a 96-well MAXISORP™ plate was first coated with 5 μg/ml avidin overnight followed by BSA blocking for 1 hr. […] The plate was used to measure either free hIL-4R-mFc (dimeric hIL-4R) or free hIL-4R-myc-myc-his (hIL4R-mmh, monomeric hIL4R) in the antibody titration sample solutions. […] After 1 hr binding, the plate was washed and bound hIL-4R-mFc was detected using either an HRP-conjugated mouse anti-mFc polyclonal antibody or an HRP-conjugated goat anti-myc polyclonal antibodies. IC₅₀ values were determined (Table 2).

[8] = target: T5, hIL-4R-myc-myc-his (human, UniProt P24394 26-232); test: ELISA-based solution competition, 200 pM hIL-4R-mmh, free receptor on biotin-hIL4 plate
T5 construct: also called hIL-4R-mmh; hIL4R-mmh; not shown: myc-myc-his tag
T5 sequence: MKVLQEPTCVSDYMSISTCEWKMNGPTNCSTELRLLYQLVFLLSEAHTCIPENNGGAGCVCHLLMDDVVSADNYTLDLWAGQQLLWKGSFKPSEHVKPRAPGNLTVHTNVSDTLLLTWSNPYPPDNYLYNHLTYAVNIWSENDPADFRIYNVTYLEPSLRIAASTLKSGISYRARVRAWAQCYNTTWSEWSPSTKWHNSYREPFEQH
Procedure: as §2

B1: H4H098P (antibody, V domains shown)
VH: EVQLVESGGGLEQPGGSLRLSCAGSGFTFRDYAMTWVRQAPGKGLEWVSSISGSGGNTYYADSVKGRFTISRDNSKNTLYLQMNSLRAEDTAVYYCAKDRLSITIRPRYYGLDVWGQGTTVTVS
VL: DIVMTQSPLSLPVTPGEPASISCRSSQSLLYSIGYNYLDWYLQKSGQSPQLLIYLGSNRASGVPDRFSGSGSGTDFTLKISRVEAEDVGFYYCMQALQTPYTFGQGTKLEIK
IC50, bioassay in the presence of 360 fM mfIL-4 [1]: 150 nM
IC50 (pM), STAT6 luciferase bioassay, 10 pM hIL-4 [2]: 27 pM
IC50 (pM), STAT6 luciferase bioassay, 40 pM hIL-13 [2]: 25 pM

B2: H4H083P (antibody, V domains shown)
VH: EVQLVESGGGLVQPGRSLRLSCEASGFTFDDYAMHWVRQAPGKGLEWVSGLSRTSVSIGYADSVKGRFTISRDNAKNSLYLEMNSLRPEDTALYYCAKWGTRGYFDYWGQGTLVTVSS
VL: DIQMTQSPSSVSASVGDRVTITCRASQDISIWLAWYQQSPGKAPKLLINVASRLQSGVPSRFSGSGSGTDFTLTINSLQPEDFVTYYCQQANSFPITFGQGTRLEIK
notes: Human anti-hIL-4R antibody captured via anti-hFc
IC50 (pM), STAT6 luciferase bioassay, 10 pM hIL-4 [2]: 25 pM
IC50 (pM), STAT6 luciferase bioassay, 40 pM hIL-13 [2]: 19 pM
Kd [3]: 0.048 nM
T1/2 [3]: 6.02 h
Kd [4]: 0.183 nM
T1/2 [4]: 1.45 h
T1/2 [5]: 4.08 h
Kd [6]: 0.0381 nM
T1/2 [6]: 2.72 h
IC50 [7]: 0.0096 nM
IC50 [8]: 0.08 nM

B3: H4H095P (antibody, V domains shown)
VH: QVQLVESGGGVVQPGRSLRLSCAASGFTFRSYGMHWVRQAPGKGLEWVAVISYDGSNKYYIDSVKGRFTISRDNSKNTLNLQMNSLRLEDTAVYYCAKEGRGGFDYWGQGTLVTVSS
VL: DIQMTQSPSSLSASVGDRVTITCRASQVINNYLAWFQQKPGKVPKSLIHAASSLQSGVPSKFSGSGSGTDFTLTISSLQPEDFATYYCQQYNSHPWTFGQGTKVEIK
notes: as for B2
IC50 (pM), STAT6 luciferase bioassay, 10 pM hIL-4 [2]: 98 pM
IC50 (pM), STAT6 luciferase bioassay, 40 pM hIL-13 [2]: 86 pM
Kd [3]: 0.274 nM
T1/2 [3]: 2.18 h
Kd [4]: 0.437 nM
T1/2 [4]: 0.817 h
Kd [5]: 0.302 nM
T1/2 [5]: 2.6 h
Kd [6]: 0.314 nM
T1/2 [6]: 1.93 h
IC50 [7]: 0.04 nM
IC50 [8]: 0.09 nM
